From patent US20220411487A1 (Regeneron, published 2022)
Residue numbers refer to the chain shown, from its start. Numbers in names are those of the source.

T1: full length mouse TMPRSS6 on HEK293 cells (HEK293/mTMPRSS6) (mouse, UniProt Q9DBI0 1-811)
T1 construct: line sorted for high expression
T1 sequence: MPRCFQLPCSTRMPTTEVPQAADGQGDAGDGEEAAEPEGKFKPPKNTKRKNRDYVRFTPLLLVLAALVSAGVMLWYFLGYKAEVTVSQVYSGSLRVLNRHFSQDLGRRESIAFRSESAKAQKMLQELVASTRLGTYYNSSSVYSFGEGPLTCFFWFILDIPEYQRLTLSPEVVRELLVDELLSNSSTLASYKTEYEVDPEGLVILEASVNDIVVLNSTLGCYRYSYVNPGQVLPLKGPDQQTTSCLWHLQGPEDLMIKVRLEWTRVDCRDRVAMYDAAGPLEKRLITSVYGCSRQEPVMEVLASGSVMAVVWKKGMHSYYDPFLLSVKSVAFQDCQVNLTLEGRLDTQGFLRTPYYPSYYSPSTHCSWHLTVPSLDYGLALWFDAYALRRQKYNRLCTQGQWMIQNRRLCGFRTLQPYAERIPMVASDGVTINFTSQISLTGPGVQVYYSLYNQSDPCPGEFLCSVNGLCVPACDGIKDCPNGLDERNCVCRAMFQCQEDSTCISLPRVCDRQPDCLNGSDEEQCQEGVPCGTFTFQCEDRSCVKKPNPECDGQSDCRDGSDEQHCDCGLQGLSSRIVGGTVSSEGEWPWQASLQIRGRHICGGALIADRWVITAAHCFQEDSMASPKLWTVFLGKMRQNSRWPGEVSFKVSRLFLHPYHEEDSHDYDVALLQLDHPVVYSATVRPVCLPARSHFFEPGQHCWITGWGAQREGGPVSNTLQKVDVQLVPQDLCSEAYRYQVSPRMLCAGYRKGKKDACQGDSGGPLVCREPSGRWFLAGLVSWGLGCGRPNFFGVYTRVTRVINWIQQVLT

T2: full length cynomolgous monkey TMPRSS6 on HEK293 cells (HEK293/mfTMPRSS6) (cynomolgous monkey/Macaca fascicularis, UniProt Q8IU80 10-811 (human entry))
T2 chain: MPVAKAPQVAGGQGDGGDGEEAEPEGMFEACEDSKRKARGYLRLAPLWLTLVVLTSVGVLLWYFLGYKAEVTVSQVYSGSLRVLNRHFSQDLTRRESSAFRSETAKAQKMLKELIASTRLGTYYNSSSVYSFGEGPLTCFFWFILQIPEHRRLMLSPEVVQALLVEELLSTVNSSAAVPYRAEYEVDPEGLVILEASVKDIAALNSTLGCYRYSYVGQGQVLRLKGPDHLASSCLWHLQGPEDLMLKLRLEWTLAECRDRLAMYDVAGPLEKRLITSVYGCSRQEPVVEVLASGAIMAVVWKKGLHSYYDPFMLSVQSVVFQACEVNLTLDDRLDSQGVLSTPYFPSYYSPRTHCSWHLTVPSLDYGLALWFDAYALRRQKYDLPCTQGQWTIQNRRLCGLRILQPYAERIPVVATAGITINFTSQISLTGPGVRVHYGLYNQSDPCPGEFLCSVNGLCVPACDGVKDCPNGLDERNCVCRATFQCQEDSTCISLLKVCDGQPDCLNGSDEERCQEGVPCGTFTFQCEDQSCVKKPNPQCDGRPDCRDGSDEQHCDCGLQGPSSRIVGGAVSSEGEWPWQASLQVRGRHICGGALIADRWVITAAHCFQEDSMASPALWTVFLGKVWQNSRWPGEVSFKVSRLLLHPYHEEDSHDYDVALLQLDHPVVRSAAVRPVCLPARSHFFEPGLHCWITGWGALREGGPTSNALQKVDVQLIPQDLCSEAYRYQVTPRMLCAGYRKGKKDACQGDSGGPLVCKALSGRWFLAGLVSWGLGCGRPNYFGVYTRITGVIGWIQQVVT

T3: full length human TMPRSS6 on HEK293 cells (HEK293/hTMPRSS6) (human, UniProt Q8IU80 10-811)
T3 construct: whole, on cells
T3 sequence (looked up): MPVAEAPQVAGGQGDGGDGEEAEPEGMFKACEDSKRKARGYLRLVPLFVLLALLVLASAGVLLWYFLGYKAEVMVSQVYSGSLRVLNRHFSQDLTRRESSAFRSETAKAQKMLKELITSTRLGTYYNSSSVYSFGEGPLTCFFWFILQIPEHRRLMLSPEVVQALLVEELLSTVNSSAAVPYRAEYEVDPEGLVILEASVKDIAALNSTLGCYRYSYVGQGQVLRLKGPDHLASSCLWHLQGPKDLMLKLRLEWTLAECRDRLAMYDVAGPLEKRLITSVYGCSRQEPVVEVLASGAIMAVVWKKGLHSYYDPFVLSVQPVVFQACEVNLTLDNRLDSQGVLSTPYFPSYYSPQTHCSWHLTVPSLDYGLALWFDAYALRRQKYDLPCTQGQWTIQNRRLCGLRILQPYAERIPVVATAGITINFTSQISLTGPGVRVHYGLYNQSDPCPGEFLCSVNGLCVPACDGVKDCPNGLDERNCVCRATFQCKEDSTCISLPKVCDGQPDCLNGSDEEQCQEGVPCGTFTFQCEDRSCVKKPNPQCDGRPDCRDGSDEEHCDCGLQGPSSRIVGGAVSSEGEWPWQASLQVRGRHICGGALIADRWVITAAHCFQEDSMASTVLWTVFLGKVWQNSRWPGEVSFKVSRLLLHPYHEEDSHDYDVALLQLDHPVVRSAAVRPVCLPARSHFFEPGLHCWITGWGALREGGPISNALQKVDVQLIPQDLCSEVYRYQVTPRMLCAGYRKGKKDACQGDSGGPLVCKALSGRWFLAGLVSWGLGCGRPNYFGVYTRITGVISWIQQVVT

T4: full-length mouse TMPRSS6 with a C-terminal triple myc tag on HEK293.hHJV cells (HEK293.hHJV/3xMyc.mTMPRSS6) (mouse, UniProt Q9DBI0 1-811)
T4 sequence: T1 sequence

B1: REGN7969 (antibody, human IgG4 S228P, kappa, V domains shown)
VH: QVQLVESGGGVVQPGRSLRLSCAASGFTFNNYGMHWVRQAPGKGLEWVAIISYDGSNEYYSDSVKGRFTISRDNSKNTLYLQMNSLRAEDTAVYYCARDQDYGGNLFHYWGQGTLVTVSS
VL: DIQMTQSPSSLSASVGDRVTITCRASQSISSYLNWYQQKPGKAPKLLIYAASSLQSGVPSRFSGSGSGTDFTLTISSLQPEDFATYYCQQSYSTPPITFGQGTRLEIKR
notes: fully human; human IgG4 Fc with hinge S108P; also called mAb37746
B2: REGN7971 (antibody, human IgG4 S228P, kappa, V domains shown)
VH: B1 VH with N30S, N31T, E58D, S61L, S85N, R98K, D101G, H108A, Y109S
VL: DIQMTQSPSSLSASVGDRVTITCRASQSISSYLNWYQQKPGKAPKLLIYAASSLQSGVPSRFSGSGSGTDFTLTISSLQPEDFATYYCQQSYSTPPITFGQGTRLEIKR
notes: fully human; human IgG4 Fc with hinge S108P; also called mAb37763
B3: REGN7999 (antibody, human IgG4 S228P, kappa, V domains shown)
VH: EVQLVESGGGLVQPGGSLRLSCAASGFTFSSYAMTWVRQAPGKGLEWVSAISGSDTSTYYADSVKGRFTISRDNSKNTLFLQMNSLRAEDTAVYYCAKHQDYDFSYYYSAMDVWGQGTTVTVSS
VL: DIQMTQSPSSLSASVGDRVIITCRASQDFNSWLAWYQQKPGKAPKLLIYAASSLQSGVPSRFSGSGSGTDFTLTISSLQPEDFATYYCQQTDSFPFTFGPGTKVDIKR
notes: fully human; human IgG4 Fc with hinge S108P; also called mAb41450
B4: REGN8023 (antibody, human IgG4 S228P, kappa, V domains shown)
VH: EVQLVESGGGLVKPGGSLRISCAASGFIFVDYAMHWVRQAPGKGLEWVSGISWNSGSIGYADSVKGRFTISRDNAKKSLYLQMSGLRPEDTALYYCVKSGFYYVRSYFDNWGQGTLVTVSS
VL: DIVMTQSPLSLPVTPGEPASISCRSSQSLLDSDDGNTYLDWYLRKPGQSPQLLIYTLSYRASGVPDRFSGSGSGTDFTLKISRVEADDVGVYYCMQRIEFPLTFGGGTKVEIKR
notes: fully human; human IgG4 Fc with hinge S108P; also called mAb37699
B5: REGN7974 (antibody, human IgG4 S228P, kappa, V domains shown)
VH: EVQLVESGGGLVQPGRSLRLSCIASGFNFGDYGMSWVRQAPGKGLEWVGFIRSKAYGGTTEYAASVKGRFTISRDDSKSIAYLQMNSLKTEDAAMYYCSRDYYDILTGYYGDYWGQGTLVTVSS
VL: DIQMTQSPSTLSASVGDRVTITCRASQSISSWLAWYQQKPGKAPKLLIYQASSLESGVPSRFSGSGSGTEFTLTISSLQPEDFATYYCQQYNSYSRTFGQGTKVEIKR
notes: fully human; human IgG4 Fc with hinge S108P; also called mAb41422
B6: REGN7977 (antibody, V domains shown)
VH: EVQLVESGGGLVKPGGSLRVSCAASGVTFSNVWMSWVRQVPGKGLEWVGRIKSKTDGGTTDYAAPVKGRFTISKDDSKNTLFLQMNSLKTEDTAVYYCTTETGDFWSGYYPRFQHWGQGTLVTVSS
VL: DIQMTQSPSSLSASVGDRVTITCRASQYISTYLNWYQQKPGKAPSLLIYAASSLQSGVPSRFSGSGSGTDFTLTISSLQPEDFASYSCQQSYSTPPYTFGQGTKLEIKR
notes: fully human; human IgG4 Fc with hinge S108P; also called mAb41465

Target: T1, full length mouse TMPRSS6 on HEK293 …
Assay: flow cytometry, HEK293 cells expressing target
Method: (§1) To assess the binding of anti-TMPRSS6 antibodies of the present disclosure to the receptor expressed on the cell surface, antibodies (including an IgG subclass control) were serially diluted in assay buffer (PBS without Ca⁺⁺ and Mg⁺⁺ containing 2% FBS) from 375 nM to 22.9 pM (plus a sample containing assay buffer alone without test molecule) and incubated with 0.5×10⁶ cells/well at 4° C. for 30 minutes in assay buffer. […] Cells were fixed using BD CytoFix™ (Becton Dickinson, #554655) and analyzed on either the IQue® or IQue®Plus Flow Cytometers (Intellicyt®). Unstained and secondary antibody alone controls were also tested for all cell lines. The results were analyzed using ForeCyt® (IntelliCyt®) software to determine the geometric means of fluorescence for viable cells and binding ratio was calculated by normalizing the geometric mean value of the test condition by the geometric mean value of the corresponding unstained cells.

Max. Fold Binding	EC50	Binder
1 fold over unstained control		B1
1 fold over unstained control		B2
421 fold over unstained control	4.5 nM	B3
296 fold over unstained control	0.84 nM	B4
1 fold over unstained control		B5
125 fold over unstained control	9.1 nM	B6

Target: T2, full length cynomolgous monkey TMPRSS6 …
Assay: flow cytometry, HEK293 cells expressing target
Method: as §1

EC50	Max. Fold Binding	Binder
1.2 nM	50 fold over unstained control	B1
1.5 nM	75 fold over unstained control	B2
2 nM	79 fold over unstained control	B3
0.94 nM	52 fold over unstained control	B4
3.6 nM	50 fold over unstained control	B5
2.4 nM	78 fold over unstained control	B6

Target: T3, full length human TMPRSS6 on HEK293 …
Assay: flow cytometry, HEK293 cells expressing target
Method: as §1

EC50	Max. Fold Binding	Binder
0.67 nM	52 fold over unstained control	B1
0.97 nM	66 fold over unstained control	B2
2.2 nM	50 fold over unstained control	B3
0.7 nM	47 fold over unstained control	B4
2.4 nM	54 fold over unstained control	B5
1.9 nM	69 fold over unstained control	B6

Target: T4, full-length mouse TMPRSS6 with a …
Assay: cell-based or functional assay

Geometric Mean Fluorescence Intensity of cell surface hHJV, 50 nM mAb	Median Fluorescence Intensity of cell surface hHJV, 50 nM mAb	Binder
8390	7810	B1
8230	7470	B2
23700	33600	B3
19000	19400	B4
6960	6220	B5
9130	7030	B6
